The record followed here is the DeepSol protein solubility set.

A short description of the data set: soluble on expression in E. coli; label from the status in PepcDB or PDB records.
Turning to “MSLEFLNSLSYGISSHEVNNEFKQIFRELLTNHIIKEHKNKYYLNNGFAFGVLDISSKGTGFLQCFDESFKKDLLIENKNLKGANYKDIVAVKLLPLKKKRPSAKVILVLKRANETSLMITKRYGEAVLGMNIKTGLSTALKASQKSLKALPLGTILKIENENNNIIEVLGHIDDESVDEKISLALFNKNNEFSDACIKEALANGDSVDASMYENRMDLRALPFCTIDPIHAKDFDDAIYFDTQKREIYVAIADVSEYVYAYSAIDKEARNRGFSIYFPHIAIPMLPRPLSENICSLKPHLDRLAYCFKITLNHENKVIKEELFEGIINSKRRFNYDEVDEILIQKPDLKELSWLYELFEITKNLRKMRLKNAFEFRTEELRMNLDENLSLKSTVFEKDTPSHNLIEDCMLLANKAAAKLIDIGVFRNHLSADVRKIDKLLNELRELGIDVNFKPNLPELIRDIQALADELNLRAEVDKLIIKAQKKAEYSSVNAGHFGLGFDKYSHFTSPIRRYSDLILHRLLKAKQKNDEKLFNYLLLNIESTCENLSTLEREADKVAFDFMDRKFARWAAKNIGKKFKALVVQNDGVCIAKLDDEIKGADIILYDTRVNLLENVEVQIMEADIVMAKIYAKITQRLIKEENVEGHHHHHH”, the “soluble on expression in E. coli” value is recorded as “not soluble”. Then “MKVDRPSRSPFPQRIPQKFWKKINDENWIDVFDCKKIKERKQEFFWYKLDPLDLAKAVAMASQMNDRGVIPYPTPTLNDALNDHAALIRALNDSSIKKLFKEVRFFCTMRKRFSTIRNNPISVKREPTNF”, with “soluble”; and “MGSDKIHHHHHHMWIEQRLWTPEGGWTVTETSPGKASLVLYFAAPGALTPESILADLRVAYGNAPILGCTTGGEILGPEVLDDSIVVSALGFDKASVRMASRDLSDVSQSRETGAALARELAGEDLRAIFILSDGTKVNGDSLVAGCLSAVTSDVVVTGGLAGDGARFQTTAVGCSDAMRPGRVAAVGFYGDSLAIGHGSFGGWDEFGPPRTITRSAANVLYELDGEPALDLYKRYLGEEAQGLPGSALLFPLSIRPSGDDAGAEVVRTIVGIDEEAKSMIFAGDVPTGHLARLMRGNFDNLVDGAGRAAEAAAAIKGPSLGLLVSCIGRKLLMGQRIAEEVEIVSDVLGKEASLMGFYSYGEISPHGFTGKCELHNQTMTITTISER”, with “not soluble”; and “MSLTNNSETFNVLHASDFHIQLDYKLGAEGNCTLVPCGTSSSYSKDAPGKTYNFTDYYKSFNSDVSGNDISFYPDSHYDENAKFSKGDYYDFPQYFGWSFNKAPATSFGAYLSDAPYLLVNNSIVEMKKLHQEKNFESIIFTGDSFSHNGELANPDELKFSEAAIFNLINHYLNGVQVFPALGNHDTMFRYAEVAPRIYVSNASYYWNEDYVTDLWVNNGWFDKKDADAIKTHYTGYSFTTKRGLKVIGMNSNFYYGDNLWSYGETTTKPDKFGIWKFLIDELVDSESHGQRVWIMAHIPSNNYDVLPIQSHIFAAIVKRFSPYTIANLFFGHTHRTQYSVYYSTNDTSKIEDALTVSWVNPSVTPYTNFNPGFRYYEVENESFNIRNSFSYYFDLNGTEGHHHHHH”, with “soluble”. Consider “MKTRISSSRVRFSRYYLRIRESLISIPSRKNQFRFIRKNRFALQASFRSFTENSLTLSFMLLRRSPMKQSRTFLIF”, for which the “soluble on expression in E. coli” value is “not soluble”. Take “MSDSDIPSSTLYKDNVDWKDITPIYPSKEEEVAVKIAVTEDFTDAFAYFRAILIKNEKSDRVMALLEDCIRLNPANYTVWQYRRVCLTELGWDLKKEMRYLSDIIQESPKNYQVWHHRRFIVETIGESAVNDELHFCSEVIRDENKNYHAWQHRQWVVRTFKVPLEKELTFALHMLLLDNRNNSAYNYRYFLMTLYDKTEDASQLDIEINLAKKFIENIPNNESAWNYLAGLLITNGVTSNSDVVSFVEDLYETTPEEKRSPFLLAFIADMMLENIENQKSAEESAGRAKKLYKDLQSIDPVRVNYYRHQSLLAQTMLIKAQTKVTAK”: the “soluble on expression in E. coli” value is on record as “not soluble”. On to “GSHMRSRRVDVMDVMNRLILAMDLMNRDDALRVTGEVREYIDTVKIGYPLVLSEGMDIIAEFRKRFGCRIIAAFKVADIPETNEKICRATFKAGADAIIVHGFPGADSVRACLNVAEEMGREVFLLTEMSHPGAEMFIQGAADEIARMGVDLGVKNYVGPSTRPERLSRLREIIGQDSFLISPGVGAQGGDPGETLRFADAIIVGRSIYLADNPAAAAAGIIESIKDLRIPEDPAANKARKEAELAAATAEQ”, for which the “soluble on expression in E. coli” value is recorded as “soluble”. With “MAVIVKYVVERNGEEKMTFTSKAEADAYDKMLDMADELFELLGKSALIEDEAKQEELAMFLAQNKEDVLCALGAKRKPAPATGKKPKAVADSDDDESVDDAA”, the “soluble on expression in E. coli” value was “not soluble”. With “MGSDKIHHHHHHMLHFKHSSVINATPEVVWKFHERPDILQLLNPPWQPVQVVRREGGLNVGAITEFRLFLGPLPLTWLARHTECDKYRLFTDEQISGPFESWVHRHEFEPEAGKTRLTDAISFSMPGGETVEFVSGWLVQVQLEAMFRYRHYVTKRECESQ”, the “soluble on expression in E. coli” value is “not soluble”. With “MSLSQLDKTCVIIGASHAGVNCAFALRKEGWQGGIVLYDADPSLPYHRPPLSKAYLTSDAGIEKYLLKSAESYEKDNITLRMGIQVSAIDRTHKILTLNDGNTRSYDKLVIATGARPIIPPTKGIKTAKNLYPLRNAADVQNIRQALESNENKRVVIVGAGYIGLEIAASLKNRGAQVTVLEREDRVLARVTAPEMSAYFQQLHVSQGVEIVTNKNVVSIAPRNGFNTITCSDGTQYDADVIVMGVGIRVNLELAEDAGLNISNGICVNAAGQTNDEDIYAIGDCTLHYNPHYNRHIRLESVQNAVDQAKVTAAAICGKEVAYNAIPWFWSDQYDVKLQIVGLSSGYNELLIRREDDGRKFSSWYFKDDELLAVDAINNAKAYMIATKFIKERRKVDKIKLTDASVALSPLNLSAESHEGHHHHHH”, the “soluble on expression in E. coli” value was “soluble”. On to “MSIESLNAFSMDFFSLKGKTAIVTGGNSGLGQAFAMALAKAGANIFIPSFVKDNGETKEMIEKQGVEVDFMQVGITAEGAPQKIIAACERFGTVDILVNNAGICKLNKVLDFGRADWDPMIDVNLTAAFELSYEAAKIMIPQKSGKIINICSLFSYLGGQWSPAYSATKHALAGFTKAYCDELGQYNIQVNGIAPGYYATDITLATRSNPETNQRVLDHIPANRWGDTQDLMGAAVFLASPASNYVNGHLLVVDGGYLVR”, for which the “soluble on expression in E. coli” value is given as “soluble”. As to “MQSAELKQFVVDKIDDLKARDVVVIDVSNQSNITDYMVICSGTSKTHVKAIAENLVIEAKAAGIPPIGIEGRDSSEWVLVDMGNVILHVMQDQTRDFYQLEKLWSEKQA”, the “soluble on expression in E. coli” value is reported as “soluble”. “GPGSMDSMCTFIIRPPRSTYEIADLGPGVFRIGDDCTERFMRHDFELENMRGLRFQCSWFKPYPARRVPCVVYCHANCGGRYDGLEALFLLQEGFSLFCFDFCGSGMSEGEYISLGFYERQDLVAIVEFLSLKSDEVDGVALWGRSMGAVATIMYASKGSIRGFVVLFAIRPSHPCGCSSTIWWSDMVGERPGFCQRFWCTGLWSASVSAS”: the “soluble on expression in E. coli” value was “not soluble”. Then “ASRPHQWQTDEEGVRTGKCSFPVKYLGHVEVDESRGMHICEDAVKRLKATGKKAVKAVLWVSADGLRVVDEKTKDLIVDQTIEKVSFCAPDRNFDRAFSYICRDGTTRRWICHCFMAVKDTGERLSHAVGCAFAACLERKQKR”, with “soluble”; and “MGSDKIHHHHHHMSISQMQVFNKYFMPAIIETLGQQIQKFNAASRGAIMLTTAGFEGDFLQESFYQAIHGARRRVDRYAANGSASPTDLTQLKHSSVKVAGGFGPIRYEPSQMTWLEKPTAEGIEVASRHFAEALLQDQLNTAIAALVAAISNQALATVNVSAKTGLNYSVLNDAHAKFGDSSGLIVANVMSGQVYHKLIGQNLVNAQQLFEYGAVTVVDILGKTVVVTDAPALYATGTPNLQKVLGLVAGAATVSDGGDLITNIETSNGKERIETTFQADYTFGLGLKGYTWDEATGGKSPTDAELATGTNWDKVATDIKHTAGVIAIGDASK”, with “not soluble”.

For “MGSDKIHHHHHHAEAGVFSDVPTSHWSYPAIKDLAGKNIISGYGNGKFGFGDVATREQVAALIYRALLPNKQGGTFSNDGARYVLQDGSTLNNPYRDIRSGSTLFPEEVLTLTKLGVFNGDGNGGFRPKDSVSRAEMAQIIKNAFQVSAKQKHTFNDVPDGFWAEGAISAVQSNGIASGTGDGKFEPAKTVTREQYAQFLYNALQYKKPAVAVQDTGDAALLAAFKDEVQKRINAYETNITLPYKTTNSNTKEVMNTLFNAYKEVASKNEYTNNNRSNVSYGLSGSPGNYTFTLKITYRETKEQTEYVMKQAKAIVSSITQVGMDDHEKVKAIHDYVVKHVSYDTSYKAYTAYEALVNRSAVCQGYALLTYQLLKEAGIENHFVVGTGDGQPHAWNLVKIENKWYHLDTTFDDPVPDEQGRVTYSYFNLSDEQIARNHEWNRGDYPQATTNYYSTLTNKIAAGGTKTSAYQQILKDTKLNYLGNEYIANNYNEFKNKMQQRYNEKSPKIEILYKQSMDGALQDVKKAIGEIGYPQGANRVSYKAEPYNAKEGYSLVTITFM”, the “soluble on expression in E. coli” value is “not soluble”.

Turning to “MGSDKIHHHHHHMTHPQDQHPPQDARTLPTRDHDASEALLERVRQAAATGTALRLVGGGSKGFYGRPVVGETLSLAEHTGIVNYDPVELVVTVRAGTRLADLQAVLAQEGQQLAFEPPHFGENATVGGTVACGLSGPRRPWAGSVRDFVLGTRMITHDGKRLHFGGEVMKNVAGYDLSRLMVGAQGTLGIIDEVSFKVLPRPAASATLRLEMGLGDAMARLAEWGRKPMPITGAAHDGETLHLRLEGGASSVANTQAQLGGELDDTAFWTQLRELELAFFSRRHDDRPLWRLSLPHRAPPLALDGDTLVDWAGAQRWLRSELPAATIRQHAAQAGGHATLVDRDRAHGVDAPFTPLSVVMDKYHRQLKAKLDPKGIFNPGRLYEGL”, the “soluble on expression in E. coli” value is listed as “not soluble”. For the sequence “MAFKNTKTLVFVLDGKLRNIPIAALFDGQQYLIEKYAVALSPGLQLMAAQSLEQNKIKAIVAGISESRSGFAALPAVESEVKQISQTIPSSMLLNQKFTSQALADRIKSSRADVVHLATHGQFSSRIEDTFLLTWDGQVNVKDLSELLKNRSGDSSKAIELLVLSACDTATGDDRAVLGLAGLAVKSGARSTIATLWPVKDKAAEMLMTRFYDQLRKPKITKAEALRQAQINLIHQTDFQDPFFWSAFVLVGNWLLEHHHHHH”, the “soluble on expression in E. coli” value was “not soluble”.

Turning to “ANLYWFRADWFDDADTKAAFKEKYGYDLGVPLNWSAYEDIAEFFTGRDMSALGGPKSAYGSMDYGKKDPSLGWRYTDAWMSMAGMGDKGDPNGLPVDEWGIRVDENSRPVGSCVARGGATNDAAAVYAITKSIEWLQKYAPPQAAGMTFSESGPVPAQGEVAQQIFWYTAFTADMVKEGLPVMNEDGTPKWRMAPSPHGAYWSEGTKVGYQDVGSWTLLKSTPDERAKAAWLYAQFVSSKTVDVKKSHVGLTFVRESTIQHQ”, the “soluble on expression in E. coli” value is given as “not soluble”. Then “MGSDKIHHHHHHMSPLKSFLGVIYMNRSERLNQELIFLSYRQEFHIKELMQEFNISKRTALRDVNSLEQLGLSIYVEPGRYGGYQIMQQQLWVPILLNSQEINALFFALKALSLLSATPFEKSYHTIYKKLMATLSLSNQRQVAKLQRVVNYYSIPNLDAPTHLSDLLTAILDENVVQLTMTTVTAGFQIFDLLYRHGIWFFSGVNLDNNAWGIYRCDTIKVFQTSEQPARYTWKQLAQRQRSYDHHHHNIRYKCALTPPGREHVQKNNYPNMHLTHQNDQDYLIGGYNQDELAYMVDYLLGLGRNVRIIYPEALKTAYLQELQQIQDFY”, with “not soluble”; and “MVQWSPFVMSFKKKYPWIQLAGHAGSFKAAANGRILKKHCESEQRCLDRLMADVLRPFVPAYHGDVVKDGERYNQMDDLLADFDSPCVMDCKMGVRTYLEEELTKARKKPSLRKDMYQKMVEVDPEAPTEEEKAQRAVTKPRYMQWRETISSTATLGFRIEGIKKEDGSVNRDFKKTKTREQVTEAFREFTKGNQNILIAYRDRLKAIRATLEISPFFKCHEVIGSSLLFIHDKKEQAKVWMIDFGKTTPLPEGQTLQHDVPWQEGNREDGYLSGLDNLIDILTEMSQG”, with “soluble”.
